From article doi:10.1101/131276 come the findings set out here.

Holding throughout (assay): non-reducing SDS-PAGE and Western blot
Assay [1] concerns the target Gbb15 made by cleavage at the atypical S0 site (from gbb mS1 or gbb mNSmS1), HA-tagged (Drosophila).
The target in assay [2] is Gbb38 from gbb mS1, HA-tagged (Drosophila).
The target in assay [3] is proGbb, the uncleaved Gbb proprotein from gbb mNSmS1, HA-tagged (Drosophila).
For assay [4], the target named is proGbb, the uncleaved Gbb proprotein from gbb mNSmS1mS0, HA-tagged (Drosophila).

Sequence of Gbb15 made by cleavage at the atypical S0 site (from gbb mS1 or gbb mNSmS1), HA-tagged (ligand) (P27091 37-455): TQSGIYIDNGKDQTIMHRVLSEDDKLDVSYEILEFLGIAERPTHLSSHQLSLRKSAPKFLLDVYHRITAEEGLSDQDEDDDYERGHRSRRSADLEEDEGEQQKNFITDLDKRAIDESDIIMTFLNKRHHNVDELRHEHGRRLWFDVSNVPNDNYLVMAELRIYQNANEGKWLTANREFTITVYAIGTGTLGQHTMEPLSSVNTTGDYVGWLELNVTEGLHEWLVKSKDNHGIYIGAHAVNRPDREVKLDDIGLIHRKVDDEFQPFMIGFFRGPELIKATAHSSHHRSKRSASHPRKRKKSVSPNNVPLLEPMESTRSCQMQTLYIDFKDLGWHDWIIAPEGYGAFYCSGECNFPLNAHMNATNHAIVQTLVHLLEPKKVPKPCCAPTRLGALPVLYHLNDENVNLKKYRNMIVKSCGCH

In assay [1], “Gbb15 made by cleavage at the atypical S0 site (from gbb mS1 or gbb mNSmS1), HA-tagged (ligand)” displayed a stoichiometry N of 2.

Turning to Gbb38 from gbb mS1, HA-tagged (ligand), the stoichiometry N in assay [2] amounted to 2.

Turning to “proGbb, the uncleaved Gbb proprotein from gbb mNSmS1, HA-tagged (natural protein)”, the stoichiometry N in assay [3] turned out to be 2.

Substance “proGbb, the uncleaved Gbb proprotein from gbb mNSmS1mS0, HA-tagged (natural protein)” displayed a stoichiometry N in assay [4] of 2.
